This is an account of results in the nanobody polyreactivity screen of Harvey et al. (2022).

The nature of the data set: yeast display, Sf9 membrane polyspecificity reagent, FACS + sequencing; frameworks hold sequencing errors. The method in brief: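 A synthetic nanobody library was expressed on Saccharomyces cerevisiae BJ5465 by galactose induction for 36–48 hours. The library was stained for 1 hour at 4 °C with 10% biotinylated, detergent-solubilized Sf9 membrane reagent and enriched with streptavidin microbeads before FACS. Low and high (top ~1%) gates were set on anti-HA fluorescence for expression and streptavidin fluorescence for reagent binding, and each polyreactivity label reflects the gate of origin.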
Turning to “QVQLVESGGGLVQAGGSLRLSCAASGSTFPDYVMGRYRQAPGKERELVAAFSSIGGSTYYADSVKGRFTISRDNAKNTVYLQMNCLKPEDTAVYYCAAENSYFYPFDYWGQGTQVTVSS”, the “polyreactivity (PSR sort gate)” value is reported as “low polyreactivity”. For “QVQLVESGGGLVQAGGSLRLSCAASGSTFPFYAMGWYRPAPGKERELVAAITSGGSTYADSVKGRFTISRDNAKNSVYLQMNSLKPEDTAVYYCAASWPRWWRFGYWGQGTQVTVSS” the value was “low polyreactivity”; for “QVQLVESGGGLVQAGGSLRLSCAASGSTFPFYAMGWYRQAPGTERELVAAITSGGSTYADSVKGRFTISRDNAKNTVYLQMNSLKPEDTAVYYCAASWPRWWRFGYWGQGTQVTVSS”, “low polyreactivity”.

As for “QVQLVESGGGLVQAGGSLRLSCAASGSTFPGNALGSYRQAPGKERELVAAIRDRGTSTYYADSVKGRFTISRDNAKNTFYLQMNSLKPEDTAVYYCAASSSNKEYDYWGQGTQVTVSS”, the “polyreactivity (PSR sort gate)” value is listed as “high polyreactivity”. As for “QVQLVESGGGLVQAGGSLRLSCAASGSTFPGNAMGWYRQAPGKERELVAAINWSGDSTYYADSVKGRFTISRDNAKNTVYLQMNSLKPEDTAVYYCAAYGDGYYYWGQGTQVTVSS”, the entry is “low polyreactivity”. As for “QVQLVESGGGLVQAGGSLRLSCAASGSTFPGNAMGWYRQAPGKERELVASISGGGDSTYYADSVKGRFTISRDNAKNTVYLQMISLKPEDTAVYYCAVDIDSNSGTRDYWGQGTQVTVSS”, the “polyreactivity (PSR sort gate)” value is given as “low polyreactivity”. As for “QVQLVESGGGLVQAGGSLRLSCAASGSTFPGYAMGWYRQAPGKERELVAAGGSTYYADSVKGRFTISRDNAKNTVYLQMNSLKPEDTAVYYCAATWGSVQKGTYYYWGQGTQVTVSS”, the entry is “low polyreactivity”; as for “QVQLVESGGGLVQAGGSLRLSCAASGSTFPHYTMGWYRQAPGKERELVAVISRSGRTYYADSVKGRFTISRDNAKNTVYLQMNSLKPEDTAVYYCAVLVGRLVWSYNHWGQGTQVTVSS”, “high polyreactivity”. For “QVQLVESGGGLVQAGGSLRLSCAASGSTFPKYAMGWYRQAPGKERELVAVITSGGSTYYADSVMGRFTISRDNAKNTVYLQMNSLKPEDTAVYYCAARKYRRFDYWGQGTQVTVSS” the value was “high polyreactivity”; for “QVQLVESGGGLVQAGGSLRLSCAASGSTFPKYGMGWYRQAPGKESEFVARINWNGGGTYYADSVKGRFTISRDNAKNTVYLQMNSLKPEDTAVYYCNARKRGARFILGYDYWGQGTQVTVSS”, “low polyreactivity”; for “QVQLVESGGGLVQAGGSLRLSCAASGSTFPLNAMGWYRQAPGKESEFLDAISYRGSSTYYADSVKGRFTISRDNAKNTVYLQMNSLKPEDTAVYYCSANPNTYYYRRGYDYWGQGTQVTVSS”, “high polyreactivity”. For “QVQLVESGGGLVQAGGSLRLSCAASGSTFPLYAMGWYRPAPGKEREFVAAINRSTGTTYYADSVKGRFTISRDNAKNTVYLQMNSLKPEDTAVYYCAARVYYRTVLGGYYYWGQGTQVTVSS” the value was “low polyreactivity”; for “QVQLVESGGGLVQAGGSLRLSCAASGSTFPLYTMGWYRQAPGKERELVAAINYGGTSTYYADSVKGRFTISRDNAKNTVYLQMNSLKPEDTAVYYCKQFVPGRYYWGQGTQVTVSS”, “high polyreactivity”; for “QVQLVESGGGLVQAGGSLRLSCAASGSTFPPNAMGWYRQAPGKERELVAAISFSSGRTYYADSVKGRFTISRDNAKNTVYLQMNSLKPEDTAVYYCAADHGYWGQGTQVTVSS”, “low polyreactivity”.

As to “QVQLVESGGGLVQAGGSLRLSCAASGSTFPPYAMGWYRQAPGKERELVAAITASGGRTYYADSVKGRFTLSRDNAKNTVYLQMNSLKPEDTAVYYCAALRGSTYDYWGQGTQVTVSS”, the “polyreactivity (PSR sort gate)” value is listed as “high polyreactivity”. “QVQLVESGGGLVQAGGSLRLSCAASGSTFPPYGMGWYRQAPGKERELVASITSGGSTNYADSVKGRFTISRDNAKNTVYLQMNSLKPEDTAVYYCNADLHSHYDYWGQGTQVTVSS”: the “polyreactivity (PSR sort gate)” value is “low polyreactivity”. For “QVQLVESGGGLVQAGGSLRLSCAASGSTFPRNAMGWYRQAPGKERELVAVITGSGGSTYYADSVKGRFTISRDNAKNTVYLQMNSLKPEDTAVYYCNARPTRRTRYDSWGQGTQVTVSS” the value was “high polyreactivity”; for “QVQLVESGGGLVQAGGSLRLSCAASGSTFPRYAMGWYIPAPGNERELVAAISSGGSTYYADSVKGRFTISRDNAKNTVYLQMNSLKPEDTAVYYCNARRSRSRYDYWGQGTQVTVSS”, “high polyreactivity”; for “QVQLVESGGGLVQAGGSLRLSCAASGSTFPRYAMGWYRQAPGKERELVASITSDGGSTYYADSVKGRFTISRDNAMNTVYLQLNSLKPEDTAVYYCNKVTYRGYRRYGYWGQGTQVTVSS”, “high polyreactivity”. As for “QVQLVESGGGLVQAGGSLRLSCAASGSTFPRYGMGWYRQAPGKERELVATITNGAITYYADSVKGRFTISRDNAKNTVYLQMNSLKPEDTAVYYCAARHFQVPDYFPEYHYWGQGTQVTVSS”, the entry is “low polyreactivity”; as for “QVQLVESGGGLVQAGGSLRLSCAASGSTFPSYAMGWYRQAPGKERELVAAINSGGGTNYADSVKGRFTISRDNAKNTVYLQMNSLKPEDTAVYYCNTDILSIYAEPYYFTDVDYWGQGTQVTVSS”, “low polyreactivity”.

In the case of “QVQLVESGGGLVQAGGSLRLSCAASGSTFPSYAMGWYRQAPGKERELVAAISRSGGSTYYADSVKGRFTISRDNAKNTVYLQMNSLKPEDTAVYYCAARGHLRYESDYWGQGTQVTVSS”, the “polyreactivity (PSR sort gate)” value is listed as “high polyreactivity”.

Regarding “QVQLVESGGGLVQAGGSLRLSCAASGSTFPSYAMGWYRQAPGKERELVAAITNGGSTTYADSVKGRFTISRDNAKNTVYIQMNSLKPEDTAVYYCAARYYYYYYYIRRDYWGQGTQVTVSS”, the “polyreactivity (PSR sort gate)” value is “low polyreactivity”. As for “QVQLVESGGGLVQAGGSLRLSCAASGSTFPSYVMGWYRQAPGKEREMVAAISSSGGRTYYADSVKGRFTISRDNAKNTVYLQMNSLKPEDTAVYYCAAKRGPLVNDHQFWGQGTQVTVSS”, the entry is “high polyreactivity”; as for “QVQLVESGGGLVQAGGSLRLSCAASGSTFPTNTMGWYRQAPGKERELVATIRKSSGRTYYADSVKGRFTISRDNAKNTVYLQMNSLKPEDTAVYYCNARRYSGALRYDYWGQGTQVTVSS”, “high polyreactivity”; as for “QVQLVESGGGLVQAGGSLRLSCAASGSTFPTYAMGWYRQAPGKERELVAAITSGSGTNTYYADSVKGRFTISRDNAKNTVYLQMNSLKPEDTAVYYCAKSFRKKYGWGQGTQVTVSS”, “high polyreactivity”. In the case of “QVQLVESGGGLVQAGGSLRLSCAASGSTFPTYAMGWYRQAPGKERELVADITWSGGSTYYADSVKGRFTISRDNAKNTVYLQMNSLKPEDTAVYYCNAAHRKGMYYWGQGTQVTVSS”, the “polyreactivity (PSR sort gate)” value is on record as “high polyreactivity”.

For “QVQLVESGGGLVQAGGSLRLSCAASGSTFPTYGMGWYRQAPGKEREFVARINWNGGGTYYADSVKGRFTISRDNAKNTVYLQMNSLKPEDTAVYYCNARKRGARFILGYDYWGQGTQVTVSS”, the “polyreactivity (PSR sort gate)” value is on record as “low polyreactivity”. As to “QVQLVESGGGLVQAGGSLRLSCAASGSTFPVNAMGWYIQAPGKERELVARIRGSGGSTYYADSVKGRFTISRDNAKNTVYLQMNSLKPEDTAVYYCNADPVRSGLDYWGQGTQVTVSS”, the “polyreactivity (PSR sort gate)” value is on record as “high polyreactivity”.

Consider “QVQLVESGGGLVQAGGSLRLSCAASGSTFPVNAMGWYRQAPGKERELVAAISSRGSSTYYADSVKGRFTISRDNAKNTVYLQMNSLKPVDTAVYYCAAPQRYPRFYYWGQGTQVTVSS”, for which the “polyreactivity (PSR sort gate)” value is “high polyreactivity”.

Turning to “QVQLVESGGGLVQAGGSLRLSCAASGSTFPVNAMGWYRQAPGKERELVAAISSTGTSTYYADSVKGRFTISRDNAKNTVYLQMNSLKPEDTAGYYCAAETWVWGYVLYDYWGQGTQVTVSS”, the “polyreactivity (PSR sort gate)” value is given as “high polyreactivity”. For “QVQLVESGGGLVQAGGSLRLSCAASGSTFPVNAMGWYRQAPGKEREMVASITWGDGSTYYADSVKGRFTISRDNAKNTVYLQMNSLKPEDTADYYCNKDFFYGYDAASYRPEYDYWGQGTQVTVSS” the value was “low polyreactivity”; for “QVQLVESGGGLVQAGGSLRLSCAASGSTFPVNTMGWYRQAPGKERELVAAISWSGGRTYYADSVKGRFTISRDNAKNTVYLQMNSLKPEDTAVYYCAAEWEGTYTTVPDEFNYWGQGTQVTVSS”, “high polyreactivity”; for “QVQLVESGGGLVQAGGSLRLSCAASGSTFPVYAMGWYIQAPGKERELVAAISYSGTRTYYADSVKGRFTISRDNAKNTVYLQMNSLKPEDTAVYYCAADFEGYGQGYGYWGQGTQVTVSS”, “low polyreactivity”.

Turning to “QVQLVESGGGLVQAGGSLRLSCAASGSTFPVYAMGWYRQAPGKERELVAAITSGGSTNYADSVKGRFTISRDNAKNTVYLQMNSLKPEDTAVYYCNAEDIYRKRDFYHRLYDYWGQGTQVTVSS”, the “polyreactivity (PSR sort gate)” value is on record as “low polyreactivity”. As for “QVQLVESGGGLVQAGGSLRLSCAASGSTFPVYAMGWYRQAPGKERELVAAITSGGSTYYADSVKGRFTISRDNAKNTVYLQMNSLKPEDTAVYYCAAEDSSPAYNHWGQGTQVTVSS”, the entry is “low polyreactivity”; as for “QVQLVESGGGLVQAGGSLRLSCAASGSTFPYNAKGWYRQAPGKERELVAAITTRGSTYYADSVKGRFTISRDNAKNTVYLQMNSLNPEESAVYYCANGPSLWYRSSFRGEGDYWGQGTQVTVSS”, “low polyreactivity”.

For the sequence “QVQLVESGGGLVQAGGSLRLSCAASGSTFPYNAMGWYIQAPGKERELVAAISSRGGRTYYADSVKGRFSISRDNAKYTVYLQMNSLKPEDTAVYYCAARVVSRKDMNYWGQGTQVTVSS”, the “polyreactivity (PSR sort gate)” value is “high polyreactivity”. As for “QVQLVESGGGLVQAGGSLRLSCAASGSTFPYNAMGWYRQAPGKDRELVAAITWRAGRTYYADSVKGRFTISRDNAKNTVYLQMNSLKPEDTAVYYCAKSYQRGVNHYEYWGQGTQVTVSS”, the “polyreactivity (PSR sort gate)” value is listed as “high polyreactivity”. For “QVQLVESGGGLVQAGGSLRLSCAASGSTFPYNAMGWYRQAPGKEREFVAAITSDDTTNYADSVKGRFTISRDNAKKTVYLQMNSLKPEDTAVYYCAAEYRYPYLRGAGDYWGQGTQVTVSS”, the “polyreactivity (PSR sort gate)” value is given as “low polyreactivity”. As to “QVQLVESGGGLVQAGGSLRLSCAASGSTFPYNAMGWYRQAPGKERELVAAITWRAGRTYYADSVKGRFTSSRDNAKNTVYLQMNSLKPEDTAVYYCAKSYQRGVNHYEYWGQGTQVSVSS”, the “polyreactivity (PSR sort gate)” value is reported as “high polyreactivity”.
